In one experiment the target is FCGR2A/CD32A (167H). As to the kind of experiment: AlphaLISA FcγR2a binding assay.
In a further experiment the target is FCGR2A/CD32A (167R). Nature of the experiment: AlphaLISA FcγR2a binding assay. (Bead proximity is the source of the signal in Alpha formats.)
Experiment [1] addresses T1, FcRn receptor (biotinylated, AlphaLisa binding kit Perkin Elmer #AL3095C) (UniProt P55899 24-297; P61769 21-119, biotinylated (sites not given)). As to the kind of experiment: AlphaLISA FcRn binding assay.
The target in experiment [2] is T2, immunoglobulin gamma Fc receptor 1 (FcγR1) (biotinylated, AlphaLisa binding kit Perkin Elmer #AL3081C) (UniProt P12314 16-288, biotinylated (sites not given)).
T2 chain: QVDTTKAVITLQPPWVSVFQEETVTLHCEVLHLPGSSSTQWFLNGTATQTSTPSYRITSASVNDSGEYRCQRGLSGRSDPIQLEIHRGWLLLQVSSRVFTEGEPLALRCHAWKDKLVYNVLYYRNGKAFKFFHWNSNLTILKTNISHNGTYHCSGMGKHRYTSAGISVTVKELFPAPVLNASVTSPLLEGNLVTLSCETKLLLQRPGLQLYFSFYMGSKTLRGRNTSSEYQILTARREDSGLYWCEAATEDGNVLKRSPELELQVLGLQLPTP
As to the kind of experiment: AlphaLISA FcγR1 binding assay.

Experiment [3] deals with T2, immunoglobulin gamma Fc receptor 1 …. As to the kind of experiment: AlphaLISA FcγR1 binding assay.
Experiment [4] addresses T1, FcRn receptor (biotinylated, AlphaLisa …). As to the kind of experiment: AlphaLISA FcRn binding assay. This is another data set of the same source.
For another experiment, the target named is FcRn (UniProt P55899 24-297; P61769 21-119, biotinylated (sites not given)). Nature of the experiment: AlphaLISA FcRn binding assay.
The target of the next experiment is T3, FCGR1/CD64 (UniProt P12314 16-288, biotinylated (sites not given)).
T3 chain: T2 chain
Nature of the experiment: AlphaLISA FcγR1 binding assay.

Usually EC50 stands for the midpoint of the concentration-response curve. Read a low EC50 as a more potent agent.

Values joined by “and” are separate entries in the source; they are usually repeats but may differ in a detail not shown here. Equal entries are not always repeated. Where two headings read alike, the source gives them in different places.

B1: Ab No. 150.1 (YTE) (antibody)
light: not shown
heavy: QVQLQESGPGLVKPSETLSLTCTVSGGSISSYYWSWIRQPPGKGLEWIGYIYYSGSTNYNPSLKSRVTISVDTSKSQFSLKLSSVTAADTAVYYCARDIPAFAFDIWGQGTMVIVSSASTKGPSVFPLAPSSKSTSGGTAALGCLVKDYFPEPVTVSWNSGALTSGVHTFPAVLQSSGLYSLSSVVTVPSSSLGTQTYICNVNHKPSNTKVDKKVEPKSCDKTHTCPPCPAPELLGGPSVFLFPPKPKDTLYITREPEVTCVVVDVSHEDPEVKFNWYVDGVEVHNAKTKPREEQYNSTYRVVSVLTVLHQDWLNGKEYKCKVSNKALPAPIEKTISKAKGQPREPQVYTLPPSRDELTKNQVSLTCLVKGFYPSDIAVEWESNGQPENNYKTTPPVLDSDGSFFLYSKLTVDKSRWQQGNVFSCSVMHEALHNHYTQKSLSLSPGK
On to B1, for which the EC50 was 18.3 µg/mL and 122 nM with FCGR2A/CD32A (167H); 275 nM and 41.3 µg/mL in the experiment with FCGR2A/CD32A (167R).

B2: Antibody No. 150.1 (antibody)
light: not shown
heavy: B1 heavy
With B2, the 50% effective concentration (EC50) in experiment [1] is 0.142 µg/mL; in experiment [2], 5.8 nM and 0.868 µg/mL.

B3: Ab No. 420.1 (YTE) (antibody)
chain 1: MGWSCIILFLVATATGVHSQLQLQESGPGLVKPSETLSLTCIVSGGSISSSGYYWGWIRQPPGKGLEWIGSIFYSGNTHYNPSLKSRVTIPVDTSKNQFSLKLSSVTAADSAVYYCARRDILTGPFDYWGQGTLVTVSSAASTKGPSVFPLAPSSKSTSGGTAALGCLVKDYFPEPVTVSWNSGALTSGVHTFPAVLQSSGLYSLSSVVTVPSSSLGTQTYICNVNHKPSNTKVDKKVEPKSCDKTHTCPPCPAPELLGGPSVFLFPPKPKDTLYITREPEVTCVVVDVSHEDPEVKFNWYVDGVEVHNAKTKPREEQYNSTYRVVSVLTVLHQDWLNGKEYKCKVSNKALPAPIEKTISKAKGQPREPQVYTLPPSRDELTKNQVSLTCLVKGFYPSDIAVEWESNGQPENNYKTTPPVLDSDGSFFLYSKLTVDKSRWQQGNVFSCSVMHEALHNHYTQKSLSLSPGK
chain 2: not shown
B3: the EC50 in experiment [3] was 14.7 nM and 2.2 µg/mL.

B4: Ab No. 420.1(YTE) (antibody)
chain 1: B3 chain 1
chain 2: not shown
As to B4, the EC50 in experiment [4] was 0.376 nM and 0.0565 µg/mL.

B5: Ab No. 420.4(YTE) (antibody)
chain 1: MGWSCIILFLVATATGVHSQLQLQESGPGLVKPSETLSLTCIVSGGSISSSGYYWGWIRQPPGKGLEWIGSIFYSGNTHYNPSLKSRVTIPVDTSKNQFSLKLSSVTAADSAVYYCARRDILTGPFDYWGQGTLVTVSSAASTKGPSVFPLAPCSRSTSESTAALGCLVKDYFPEPVTVSWNSGALTSGVHTFPAVLQSSGLYSLSSVVTVPSSSLGTKTYTCNVDHKPSNTKVDKRVESKYGPPCPSCPAPEFLGGPSVFLFPPKPKDTLYITREPEVTCVVVDVSQEDPEVQFNWYVDGVEVHNAKTKPREEQFNSTYRVVSVLTVLHQDWLNGKEYKCKVSNKGLPSSIEKTISKAKGQPREPQVYTLPPSQEEMTKNQVSLTCLVKGFYPSDIAVEWESNGQPENNYKTTPPVLDSDGSFFLYSRLTVDKSRWQEGNVFSCSVMHEALHNHYTQKSLSLSLGK
chain 2: not shown
On to B5, for which the 50% effective concentration (EC50) in experiment [4] is 0.486 nM and 0.0729 µg/mL.

B6: Ab No. 420.4 (YTE) (antibody)
chain 1: B5 chain 1
chain 2: not shown
With B6, the EC50 in experiment [3] was 139 nM and 20.8 µg/mL.

B7: VSTB174 (WT) (antibody)
chain 1: not shown
chain 2: DIQMTQSPSSLSASVGDRVTITCRASQSIDTRLNWYQQKPGKAPKLLIYSASSLQSGVPSRFSGSGSGTDFTLTISSLQPEDFATYYCQQSAYNPITFGQGTKVEIKRTVAAPSVFIFPPSDEQLKSGTASVVCLLNNFYPREAKVQWKVDNALQSGNSQESVTEQDSKDSTYSLSSTLTLSKADYEKHKVYACEVTHQGLSSPVTKSFNRGEC
Take B7: the concentration giving a half-maximal response (EC50) with FcRn is 1.5 µg/mL; with FCGR1/CD64, 3.6 nM and 0.534 µg/mL; in the experiment with FCGR2A/CD32A (167H), 2.1 µg/mL; with FCGR2A/CD32A (167R), 4.6 µg/mL.

For the origin of these results see patent publication US20240132593A1 (published 2024).
